The values below come from the supplement of paper PMC10567573.

The chains are these.
B1: ZNF449 (parent)
chain: CTHCSKSFRQRAGLIMHQVTHFRG
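Further: lentivirally expressed fusions sorted by FACS into six bins by GFP to DsRed ratio, PSI derived from sequencing read proportions per bin multiplied by bin number.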

Variants of B1 are the subject of this data set. The experiment in a line: protein stability index of a GFP-peptide fusion (GPS, HEK-293T) (PSI 1-6); higher = more stable. The note with it: c terminus: a fixed tail appended.
For CTHCSKSFRQRAGLIMHQVTHFRW, the protein stability index is 3.25.
To CTHCSKSFRQRAGLIMHQVTHFRK belongs 3.01; to CTHCSKSFRQRAGLIMHQVTHFRQ, 3.19.
For the variant CTHCSKSFRQRAGLIMHQVTHNRG, the protein stability index is 2.39.
Take CTHCSKSFRQRAGLIMHQVTHARG: the protein stability index is 1.72.
Take CTHCSKSFRQRAGLIMHQVTHERG: the protein stability index amounted to 1.98.
In the case of CTHCSKSFRQRAGLIMHQVTHDRG, the protein stability index was 2.37.
To CTHCSKSFRQRAGLIMHQVTHLRG belongs 1.93; to CTHCSKSFRQRAGLIMHQVTHMRG, 2.18.
The figure for CTHCSKSFRQRAGLIMHQVTHIRG is 1.92; for CTHCSKSFRQRAGLIMHQVTHSRG it is 2.2.
The figure for CTHCSKSFRQRAGLIMHQVTHCRG is 3.06; for CTHCSKSFRQRAGLIMHQVTHGRG it is 2.61; for CTHCSKSFRQRAGLIMHQVTHPRG it is 1.58.
For CTHCSKSFRQRAGLIMHQVTHTRG, the protein stability index worked out at 1.98.
In the case of CTHCSKSFRQRAGLIMHQVTHKRG, the protein stability index amounted to 2.06.
To CTHCSKSFRQRAGLIMHQVTHQRG belongs 2.5; to CTHCSKSFRQRAGLIMHQVTHWRG, 1.08; to CTHCSKSFRQRAGLIMHQVTHRRG, 3.58.
As for CTHCSKSFRQRAGLIMHQVTHHRG, the protein stability index was found to be 3.29.
The figure for CTHCSKSFRQRAGLIMHQVTHVRG is 2.14.
To CTHCSKSFRQRAGLIMHQVTHYRG belongs 2.45; to CTHCSKSFRQRAGLIMHQTTHFRG, 1.88.
To CTHCSKSFRQRAGLIMHQGTHFRG belongs 2.74; to CTHCSKSFRQRAGLIMHQLTHFRG, 2.92.
On to CTHCSKSFRQRAGLIMHQWTHFRG, for which the protein stability index worked out at 2.71.
With CTHCSKSFRQRAGLIMHQCTHFRG, the protein stability index was determined as 3.24.
As to CTHCSKSFRQRAGLIMHQQTHFRG, the protein stability index stood at 2.
To CTHCSKSFRQRAGLIMHQMTHFRG belongs 2.12; to CTHCSKSFRQRAGLIMHQFTHFRG, 2.4.
On to CTHCSKSFRQRAGLIMHQRTHFRG, for which the protein stability index turned out to be 3.95.
The figure for CTHCSKSFRQRAGLIMHQKTHFRG is 3.79.
As to CTHCSKSFRQRAGLIMHQPTHFRG, the protein stability index came out at 1.76.
The figure for CTHCSKSFRQRAGLIMHQNTHFRG is 2.82.
To CTHCSKSFRQRAGLIMHQITHFRG belongs 2.91; to CTHCSKSFRQRAGLIMHQYTHFRG, 2.55; to CTHCSKSFRQRAGLIMHQETHFRG, 3.08.
To CTHCSKSFRQRAGLIMHQHTHFRG belongs 1.89.
With CTHCSKSFRQRAGLIMHQSTHFRG, the protein stability index worked out at 1.79.
For CTHCSKSFRQRAGLIMHQDTHFRG, the protein stability index stood at 1.81.
As to CTHCSKSFRQRAGLIMHQVTHFYG, the protein stability index was found to be 2.36.
To CTHCSKSFRQRAGLIMHQVTHFQG belongs 2.6; to CTHCSKSFRQRAGLIMHQVTHFMG, 2.44; to CTHCSKSFRQRAGLIMHQVTHFSG, 2.07.
As for CTHCSKSFRQRAGLIMHQVTHFAG, the protein stability index came to 2.97.
For the variant CTHCSKSFRQRAGLIMHQVTHFTG, the protein stability index was 2.03.
Turning to CTHCSKSFRQRAGLIMHQVTHFFG, the protein stability index came to 3.33.
To CTHCSKSFRQRAGLIMHQVTHFVG belongs 3.18; to CTHCSKSFRQRAGLIMHQVTHFHG, 1.62; to CTHCSKSFRQRAGLIMHQVTHFPG, 2.69.
To CTHCSKSFRQRAGLIMHQVTHFCG belongs 2.56.
The figure for CTHCSKSFRQRAGLIMHQVTHFWG is 3.55; for CTHCSKSFRQRAGLIMHQVTHFDG it is 2.49; for CTHCSKSFRQRAGLIMHQVTHFNG it is 2.15.
Take CTHCSKSFRQRAGLIMHQVTHFKG: the protein stability index was 2.7.
Regarding CTHCSKSFRQRAGLIMHQVTHFLG, the protein stability index came out at 3.36.
The figure for CTHCSKSFRQRAGLIMHQVTHFIG is 3.44; for CTHCSKSFRQRAGLIMHQVTHFGG it is 2.37.
To CTHCSKSFRQRAGLIMHQVTHFEG belongs 2.93.
To CTHCSKSFRQRAGLIMHQVTGFRG belongs 1.55; to CTHCSKSFRQRAGLIMHQVTAFRG, 2.17.
Consider CTHCSKSFRQRAGLIMHQVTQFRG, for which the protein stability index amounted to 1.35.
Regarding CTHCSKSFRQRAGLIMHQVTVFRG, the protein stability index was 1.91.
To CTHCSKSFRQRAGLIMHQVTLFRG belongs 1.97; to CTHCSKSFRQRAGLIMHQVTCFRG, 2.53; to CTHCSKSFRQRAGLIMHQVTFFRG, 1.8.
The figure for CTHCSKSFRQRAGLIMHQVTIFRG is 2.39; for CTHCSKSFRQRAGLIMHQVTRFRG it is 1.85.
To CTHCSKSFRQRAGLIMHQVTWFRG belongs 2.41; to CTHCSKSFRQRAGLIMHQVTYFRG, 1.4.
As to CTHCSKSFRQRAGLIMHQVTKFRG, the protein stability index is 2.28.
To CTHCSKSFRQRAGLIMHQVTEFRG belongs 1.89.
To CTHCSKSFRQRAGLIMHQVTTFRG belongs 1.47; to CTHCSKSFRQRAGLIMHQVTMFRG, 2.56.
To CTHCSKSFRQRAGLIMHQVTSFRG belongs 1.29.
On to CTHCSKSFRQRAGLIMHQVTPFRG, for which the protein stability index was found to be 1.49.
To CTHCSKSFRQRAGLIMHQVLHFRG belongs 1.43; to CTHCSKSFRQRAGLIMHQVQHFRG, 1.83; to CTHCSKSFRQRAGLIMHQVEHFRG, 1.99.
The figure for CTHCSKSFRQRAGLIMHQVMHFRG is 1.56.
To CTHCSKSFRQRAGLIMHQVKHFRG belongs 2.33; to CTHCSKSFRQRAGLIMHQVYHFRG, 2.05.
Take CTHCSKSFRQRAGLIMHQVFHFRG: the protein stability index was 2.09.
The figure for CTHCSKSFRQRAGLIMHQVWHFRG is 2.09.
In the case of CTHCSKSFRQRAGLIMHQVSHFRG, the protein stability index was determined as 1.45.
To CTHCSKSFRQRAGLIMHQVVHFRG belongs 1.73; to CTHCSKSFRQRAGLIMHQVCHFRG, 1.52; to CTHCSKSFRQRAGLIMHQVAHFRG, 2.04.
The figure for CTHCSKSFRQRAGLIMHQVGHFRG is 2.06; for CTHCSKSFRQRAGLIMHQVIHFRG it is 2.57.
Turning to CTHCSKSFRQRAGLIMHQVRHFRG, the protein stability index amounted to 2.14.
The figure for CTHCSKSFRQRAGLIMHQVHHFRG is 2.33; for CTHCSKSFRQRAGLIMHQVNHFRG it is 2.44; for CTHCSKSFRQRAGLIMHQVDHFRG it is 2.18.
